In patent US20250295737A1 (AstraZeneca / MedImmune, published 2025):
Blank lines part the entries; values can stand above or below the binder they belong to.

Columns and labels:
Assay in all cases: cell-based or functional assay
human RXFP2 = human RXFP2 (human, UniProt Q8WXD0 1-754)
mouse RXFP1 = target: T1, mouse RXFP1 (mouse, UniProt Q6R6I7 1-758)
T1 sequence (looked up): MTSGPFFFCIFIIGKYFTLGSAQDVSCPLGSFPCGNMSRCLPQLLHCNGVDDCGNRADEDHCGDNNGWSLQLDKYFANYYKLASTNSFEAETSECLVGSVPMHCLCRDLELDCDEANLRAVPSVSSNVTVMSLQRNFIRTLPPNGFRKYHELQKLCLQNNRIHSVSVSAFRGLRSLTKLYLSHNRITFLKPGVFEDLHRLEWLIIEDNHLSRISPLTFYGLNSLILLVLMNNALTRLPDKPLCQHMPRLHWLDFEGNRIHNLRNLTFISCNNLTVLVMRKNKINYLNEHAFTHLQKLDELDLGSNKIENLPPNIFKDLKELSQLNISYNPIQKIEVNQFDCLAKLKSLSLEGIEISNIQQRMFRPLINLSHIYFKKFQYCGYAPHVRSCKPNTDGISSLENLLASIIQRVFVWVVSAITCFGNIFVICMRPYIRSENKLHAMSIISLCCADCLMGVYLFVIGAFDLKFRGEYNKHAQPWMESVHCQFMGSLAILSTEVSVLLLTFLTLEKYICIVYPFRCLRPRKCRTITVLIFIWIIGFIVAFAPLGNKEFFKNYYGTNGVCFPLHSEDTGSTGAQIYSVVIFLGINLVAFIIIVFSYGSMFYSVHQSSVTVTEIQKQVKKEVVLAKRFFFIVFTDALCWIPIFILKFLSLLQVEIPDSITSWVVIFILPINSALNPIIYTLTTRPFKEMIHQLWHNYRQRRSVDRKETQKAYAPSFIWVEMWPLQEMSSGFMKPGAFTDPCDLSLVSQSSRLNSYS

human RXFP1 = target: T2, human RXFP1 (human, UniProt Q9HBX9 1-757)
T2 sequence (looked up): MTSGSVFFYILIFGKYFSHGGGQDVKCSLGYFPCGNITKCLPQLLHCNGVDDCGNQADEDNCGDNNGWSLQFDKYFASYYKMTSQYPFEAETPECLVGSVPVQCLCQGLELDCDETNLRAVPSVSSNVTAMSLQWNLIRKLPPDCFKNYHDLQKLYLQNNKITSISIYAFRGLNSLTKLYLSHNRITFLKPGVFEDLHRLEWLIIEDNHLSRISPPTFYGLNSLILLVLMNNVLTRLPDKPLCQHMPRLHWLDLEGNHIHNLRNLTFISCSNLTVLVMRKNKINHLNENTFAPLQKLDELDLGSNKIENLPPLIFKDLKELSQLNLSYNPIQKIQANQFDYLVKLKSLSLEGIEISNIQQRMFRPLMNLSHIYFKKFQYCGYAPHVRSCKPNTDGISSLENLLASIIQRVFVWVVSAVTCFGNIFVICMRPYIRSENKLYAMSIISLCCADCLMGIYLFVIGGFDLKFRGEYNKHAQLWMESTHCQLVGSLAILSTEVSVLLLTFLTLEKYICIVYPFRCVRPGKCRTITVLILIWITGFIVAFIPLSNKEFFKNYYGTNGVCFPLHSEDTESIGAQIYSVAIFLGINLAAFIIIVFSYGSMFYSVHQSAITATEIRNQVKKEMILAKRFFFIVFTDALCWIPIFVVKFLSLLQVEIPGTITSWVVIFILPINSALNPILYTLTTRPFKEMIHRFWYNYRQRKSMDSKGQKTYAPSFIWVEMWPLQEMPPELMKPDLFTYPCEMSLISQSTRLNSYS

Chain of human RXFP2 (Q8WXD0 whole entry): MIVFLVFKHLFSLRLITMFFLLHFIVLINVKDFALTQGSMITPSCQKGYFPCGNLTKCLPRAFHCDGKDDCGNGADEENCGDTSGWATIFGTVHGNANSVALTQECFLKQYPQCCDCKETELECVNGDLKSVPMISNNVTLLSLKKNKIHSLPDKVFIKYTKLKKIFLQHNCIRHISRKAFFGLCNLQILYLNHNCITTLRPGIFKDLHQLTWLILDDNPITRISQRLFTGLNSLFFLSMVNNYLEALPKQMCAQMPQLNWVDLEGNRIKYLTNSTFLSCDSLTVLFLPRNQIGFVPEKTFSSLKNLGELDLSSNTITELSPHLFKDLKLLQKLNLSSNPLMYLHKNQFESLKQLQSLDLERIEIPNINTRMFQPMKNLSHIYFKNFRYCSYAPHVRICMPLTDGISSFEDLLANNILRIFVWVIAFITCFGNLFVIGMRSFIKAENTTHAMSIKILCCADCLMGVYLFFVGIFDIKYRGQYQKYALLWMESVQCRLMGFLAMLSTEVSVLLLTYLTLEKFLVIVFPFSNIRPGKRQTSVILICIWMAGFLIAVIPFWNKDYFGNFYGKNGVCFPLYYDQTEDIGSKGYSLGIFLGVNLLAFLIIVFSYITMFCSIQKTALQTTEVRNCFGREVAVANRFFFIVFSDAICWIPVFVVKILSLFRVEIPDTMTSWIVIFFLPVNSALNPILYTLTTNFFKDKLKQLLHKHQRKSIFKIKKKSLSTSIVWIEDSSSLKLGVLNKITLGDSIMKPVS

EC50 hRXFP2 (M), cAMP HTRF assay (human RXFP2): 4.67e-08 M
EC50 mRXFP1 (M), cAMP HTRF assay (mouse RXFP1): 3.09e-11 M
EC50 hRXFP1 (M), cAMP HTRF assay (human RXFP1): 6.37e-11 M
B1: RELAX0085 (Fc fusion)
chain 1: DKTHTCPPCPAPEFEGGPSVFLFPPKPKDTLMISRTPEVTCVVVDVSHEDPEVKFNWYVDGVEVHNAKTKPREEQYNSTYRVVSVLTVLHQDWLNGKEYKCKVSNKALPASIEKTISKAKGQPREPQVYTLPPCREEMTKNQVSLWCLVKGFYPSDIAVEWESNGQPENNYKTTPPVLDSDGSFFLYSKLTVDKSRWQQGNVFSCSVMHEALHNHYTQKSLSLSPGGGGGSGGGGSGGGGSGGGGGSQLYSALANKCCHVGCTKRSLARFC
chain 2: DKTHTCPPCPAPEFEGGPSVFLFPPKPKDTLMISRTPEVTCVVVDVSHEDPEVKFNWYVDGVEVHNAKTKPREEQYNSTYRVVSVLTVLHQDWLNGKEYKCKVSNKALPASIEKTISKAKGQPREPQVCTLPPSREEMTKNQVSLSCAVKGFYPSDIAVEWESNGQPENNYKTTPPVLDSDGSFFLVSKLTVDKSRWQQGNVFSCSVMHEALHNHYTQKSLSLSPGAPAPAPAPAPAPAPAPAPAGSSWMEEVIKLCGRELVRAQIAICGMSTWS

EC50 hRXFP2 (M), cAMP HTRF assay (human RXFP2): 4.94e-08 M
EC50 mRXFP1 (M), cAMP HTRF assay (mouse RXFP1): 1.98e-11 M
EC50 hRXFP1 (M), cAMP HTRF assay (human RXFP1): 6.96e-11 M
B2: RELAX0106 (Fc fusion)
chain 1: DKTHTCPPCPAPEFEGGPSVFLFPPKPKDTLMISRTPEVTCVVVDVSHEDPEVKFNWYVDGVEVHNAKTKPREEQYNSTYRVVSVLTVLHQDWLNGKEYKCKVSNKALPASIEKTISKAKGQPREPQVYTLPPCREEMTKNQVSLWCLVKGFYPSDIAVEWESNGQPENNYKTTPPVLDSDGSFFLYSKLTVDKSRWQQGNVFSCSVMHEALHNHYTQKSLSLSPGGGGGSGGGGGSQLYSALANKCCHVGCTKRSLARFC
chain 2: B1 chain 2

EC50 hRXFP2 (M), cAMP HTRF assay (human RXFP2): 3.33e-08 M
EC50 mRXFP1 (M), cAMP HTRF assay (mouse RXFP1): 1.49e-11 M
EC50 hRXFP1 (M), cAMP HTRF assay (human RXFP1): 7.12e-11 M
B3: RELAX0105 (Fc fusion)
chain 1: DKTHTCPPCPAPEFEGGPSVFLFPPKPKDTLMISRTPEVTCVVVDVSHEDPEVKFNWYVDGVEVHNAKTKPREEQYNSTYRVVSVLTVLHQDWLNGKEYKCKVSNKALPASIEKTISKAKGQPREPQVYTLPPCREEMTKNQVSLWCLVKGFYPSDIAVEWESNGQPENNYKTTPPVLDSDGSFFLYSKLTVDKSRWQQGNVFSCSVMHEALHNHYTQKSLSLSPGGGGGSGGGGSGGGGGSQLYSALANKCCHVGCTKRSLARFC
chain 2: B1 chain 2

EC50 hRXFP2 (M), cAMP HTRF assay (human RXFP2): 3.63e-08 M
EC50 mRXFP1 (M), cAMP HTRF assay (mouse RXFP1): 3.48e-11 M
EC50 hRXFP1 (M), cAMP HTRF assay (human RXFP1): 4.89e-11 M
B4: RELAX0087 (Fc fusion)
chain 1: B1 chain 1
chain 2: DKTHTCPPCPAPEFEGGPSVFLFPPKPKDTLMISRTPEVTCVVVDVSHEDPEVKFNWYVDGVEVHNAKTKPREEQYNSTYRVVSVLTVLHQDWLNGKEYKCKVSNKALPASIEKTISKAKGQPREPQVCTLPPSREEMTKNQVSLSCAVKGFYPSDIAVEWESNGQPENNYKTTPPVLDSDGSFFLVSKLTVDKSRWQQGNVFSCSVMHEALHNHYTQKSLSLSPGGGGGSGGGGSGGGGGSSWMEEVIKLCGRELVRAQIAICGMSTWS

EC50 hRXFP2 (M), cAMP HTRF assay (human RXFP2): 1.22e-07 M
EC50 mRXFP1 (M), cAMP HTRF assay (mouse RXFP1): 3.87e-11 M
EC50 hRXFP1 (M), cAMP HTRF assay (human RXFP1): 8.09e-11 M
B5: RELAX0107 (Fc fusion)
chain 1: DKTHTCPPCPAPEFEGGPSVFLFPPKPKDTLMISRTPEVTCVVVDVSHEDPEVKFNWYVDGVEVHNAKTKPREEQYNSTYRVVSVLTVLHQDWLNGKEYKCKVSNKALPASIEKTISKAKGQPREPQVYTLPPCREEMTKNQVSLWCLVKGFYPSDIAVEWESNGQPENNYKTTPPVLDSDGSFFLYSKLTVDKSRWQQGNVFSCSVMHEALHNHYTQKSLSLSPGGGGGGSQLYSALANKCCHVGCTKRSLARFC
chain 2: B1 chain 2

EC50 hRXFP2 (M), cAMP HTRF assay (human RXFP2): > 6.07e-08 M
EC50 mRXFP1 (M), cAMP HTRF assay (mouse RXFP1): 1.11e-09 M
EC50 hRXFP1 (M), cAMP HTRF assay (human RXFP1): 1.88e-09 M
B6: RELAX0110 (Fc fusion)
chain 1: B2 chain 1
chain 2: DKTHTCPPCPAPEFEGGPSVFLFPPKPKDTLMISRTPEVTCVVVDVSHEDPEVKFNWYVDGVEVHNAKTKPREEQYNSTYRVVSVLTVLHQDWLNGKEYKCKVSNKALPASIEKTISKAKGQPREPQVYTLPPCREEMTKNQVSLWCLVKGFYPSDIAVEWESNGQPENNYKTTPPVLDSDGSFFLYSKLTVDKSRWQQGNVFSCSVMHEALHNHYTQKSLSLSPGAAPAPAPAPAPAPAGSSWMEEVIKLCGRELVRAQIAICGMSTWS

EC50 hRXFP2 (M), cAMP HTRF assay (human RXFP2): 1.2e-08 M
EC50 mRXFP1 (M), cAMP HTRF assay (mouse RXFP1): 3.48e-11 M
EC50 hRXFP1 (M), cAMP HTRF assay (human RXFP1): 5.34e-11 M
B7: RELAX0084 (Fc fusion)
chain 1: DKTHTCPPCPAPEFEGGPSVFLFPPKPKDTLMISRTPEVTCVVVDVSHEDPEVKFNWYVDGVEVHNAKTKPREEQYNSTYRVVSVLTVLHQDWLNGKEYKCKVSNKALPASIEKTISKAKGQPREPQVYTLPPCREEMTKNQVSLWCLVKGFYPSDIAVEWESNGQPENNYKTTPPVLDSDGSFFLYSKLTVDKSRWQQGNVFSCSVMHEALHNHYTQKSLSLSPGAPAPAPAPAPAPAPAPAPAGSQLYSALANKCCHVGCTKRSLARFC
chain 2: DKTHTCPPCPAPEFEGGPSVFLFPPKPKDTLMISRTPEVTCVVVDVSHEDPEVKFNWYVDGVEVHNAKTKPREEQYNSTYRVVSVLTVLHQDWLNGKEYKCKVSNKALPASIEKTISKAKGQPREPQVCTLPPSREEMTKNQVSLSCAVKGFYPSDIAVEWESNGQPENNYKTTPPVLDSDGSFFLVSKLTVDKSRWQQGNVFSCSVMHEALHNHYTQKSLSLSPGGGGGSGGGGSGGGGSGGGGGSSWMEEVIKLCGRELVRAQIAICGMSTWS

EC50 hRXFP2 (M), cAMP HTRF assay (human RXFP2): 4.88e-08 M
EC50 mRXFP1 (M), cAMP HTRF assay (mouse RXFP1): 2.68e-11 M
EC50 hRXFP1 (M), cAMP HTRF assay (human RXFP1): 4.49e-11 M
B8: RELAX0086 (Fc fusion)
chain 1: B3 chain 1
chain 2: B7 chain 2
